Target: vimentin (human, UniProt P08670 2-466)
Assay: filter binding; Filter binding: 20 mM Tris, 150 mM NaCl, pH 8.0, 2 h, room temperature, 10 uL; flow cytometry: fixed IGROV cells, 22 C, 1 h; microscopy: 37 C, 1 h
Details: label: 5'-biotin; predicted stem-loop

vimentin, sequence (P08670 2-466): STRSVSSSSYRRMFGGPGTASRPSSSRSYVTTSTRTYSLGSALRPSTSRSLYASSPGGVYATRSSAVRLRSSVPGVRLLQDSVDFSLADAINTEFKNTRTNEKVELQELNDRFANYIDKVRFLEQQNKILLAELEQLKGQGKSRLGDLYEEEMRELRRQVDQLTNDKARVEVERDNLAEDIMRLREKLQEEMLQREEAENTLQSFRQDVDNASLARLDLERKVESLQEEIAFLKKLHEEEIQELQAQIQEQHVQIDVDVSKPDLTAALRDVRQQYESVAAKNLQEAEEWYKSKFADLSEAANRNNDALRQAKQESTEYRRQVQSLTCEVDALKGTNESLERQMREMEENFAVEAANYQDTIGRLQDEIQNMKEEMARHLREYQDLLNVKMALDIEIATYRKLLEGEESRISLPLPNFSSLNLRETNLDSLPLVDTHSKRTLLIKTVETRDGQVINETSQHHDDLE

TAGACCCAGCTGGTCCGGAAAATAAGATGTCACGGATCCTC (XNA, monothioated phosphates 3' of adenines (shown in red, positions not in text)) [V5M2]
Kd: 47.4 nM

ACCTCTTCAAGAACATCCCTGTCACGGATCCTCTAGAGCA (XNA, monothioated phosphates 3' of adenines (shown in red, positions not in text)) [V3M2]
Kd: 18.9 nM
